Measurements taken from the supplement of paper PMC10567573.

B1: TOR1AIP2 (parent)
chain: AGQEGEDTLRRRLLAPEAGSHPQQ

Variants of: B1
Experiment: protein stability index of a GFP-peptide fusion (GPS, HEK-293T) (PSI 1-6); higher = more stable
Settings: c terminus: a fixed tail appended
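Also: lentivirally expressed fusions sorted by FACS into six bins by GFP to DsRed ratio, PSI derived from sequencing read proportions per bin multiplied by bin number.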

Going from AGQEGEDTLRRRLLAPEPGSHPQQ [A18P] to AGQEGEDTLRRRLLAPECGSHPQQ [A18C], the protein stability index falls from 4.77 to 2.48.

First: AGQEGEDTLRRRLLAPEDGSHPQQ [A18D]
Second: AGQEGEDTLRRRLLAPEFGSHPQQ [A18F]
The protein stability index of the first is higher: 3.62 for the first, 2.16 for the second.

First: AGQEGEDTLRRRLLAPETGSHPQQ [A18T]
Second: AGQEGEDTLRRRLLAPEIGSHPQQ [A18I]
The protein stability index of the first is higher: 3.11 for the first, 1.9 for the second.

First: AGQEGEDTLRRRLLAPEHGSHPQQ [A18H]
Second: AGQEGEDTLRRRLLAPEGGSHPQQ [A18G]
The protein stability index of the first is lower: 3.03 for the first, 3.92 for the second.

First: AGQEGEDTLRRRLLAPENGSHPQQ [A18N]
Second: AGQEGEDTLRRRLLAPEYGSHPQQ [A18Y]
The protein stability index of the first is higher: 4.09 for the first, 1.43 for the second.

Going from AGQEGEDTLRRRLLAPESGSHPQQ [A18S] to AGQEGEDTLRRRLLAPEMGSHPQQ [A18M], the protein stability index falls from 2.35 to 2.08.

Going from AGQEGEDTLRRRLLAPEEGSHPQQ [A18E] to AGQEGEDTLRRRLLAPELGSHPQQ [A18L], the protein stability index falls from 3.46 to 1.57.

First: AGQEGEDTLRRRLLAPEVGSHPQQ [A18V]
Second: AGQEGEDTLRRRLLAPEKGSHPQQ [A18K]
The protein stability index of the first is lower: 2.75 for the first, 3.5 for the second.

Compared with AGQEGEDTLRRRLLAPEAGSCPQQ [H21C], AGQEGEDTLRRRLLAPEAGSDPQQ [H21D] is higher in protein stability index: 2.69 for the first, 3.73 for the second.

First: AGQEGEDTLRRRLLAPEAGSAPQQ [H21A]
Second: AGQEGEDTLRRRLLAPEAGSEPQQ [H21E]
The protein stability index of the first is higher: 2.53 for the first, 1.73 for the second.

Going from AGQEGEDTLRRRLKAPEAGSHPQQ [L14K] to AGQEGEDTLRRRLFAPEAGSHPQQ [L14F], the protein stability index falls from 5.51 to 4.25.

Compared with AGQEGEDTLRRRLYAPEAGSHPQQ [L14Y], AGQEGEDTLRRRLDAPEAGSHPQQ [L14D] is higher in protein stability index: 4.5 for the first, 5.59 for the second.

Compared with AGQEGEDTLRRRLQAPEAGSHPQQ [L14Q], AGQEGEDTLRRRLHAPEAGSHPQQ [L14H] is lower in protein stability index: 5.68 for the first, 5.5 for the second.

Going from AGQEGEDTLRRRLEAPEAGSHPQQ [L14E] to AGQEGEDTLRRRLAAPEAGSHPQQ [L14A], the protein stability index rises from 5.37 to 5.73.

Going from AGQEGEDTLRRRLNAPEAGSHPQQ [L14N] to AGQEGEDTLRRRLRAPEAGSHPQQ [L14R], the protein stability index falls from 5.56 to 5.17.

First: AGQEGEDTLRRRLVAPEAGSHPQQ [L14V]
Second: AGQEGEDTLRRRLMAPEAGSHPQQ [L14M]
The protein stability index of the first is higher: 5.37 for the first, 4.6 for the second.

Going from AGQEGEDTLRRRLGAPEAGSHPQQ [L14G] to AGQEGEDTLRRRLTAPEAGSHPQQ [L14T], the protein stability index rises from 5.21 to 5.58.

Compared with AGQEGEDTLRRRLIAPEAGSHPQQ [L14I], AGQEGEDTLRRRLPAPEAGSHPQQ [L14P] is higher in protein stability index: 5.06 for the first, 5.93 for the second.

Going from AGQEGEDTLRRRLWAPEAGSHPQQ [L14W] to AGQEGEDTLRRRLSAPEAGSHPQQ [L14S], the protein stability index rises from 4.69 to 5.63.

Compared with AGQEGEDTLRRRLCAPEAGSHPQQ [L14C], AGQEGEDTLRRRTLAPEAGSHPQQ [L13T] is higher in protein stability index: 4.91 for the first, 5.03 for the second.

Going from AGQEGEDTLRRRYLAPEAGSHPQQ [L13Y] to AGQEGEDTLRRRVLAPEAGSHPQQ [L13V], the protein stability index falls from 4.14 to 3.31.

Compared with AGQEGEDTLRRRWLAPEAGSHPQQ [L13W], AGQEGEDTLRRRDLAPEAGSHPQQ [L13D] is higher in protein stability index: 3.21 for the first, 4.91 for the second.

Compared with AGQEGEDTLRRRPLAPEAGSHPQQ [L13P], AGQEGEDTLRRRHLAPEAGSHPQQ [L13H] is lower in protein stability index: 5.6 for the first, 4.82 for the second.

Compared with AGQEGEDTLRRRNLAPEAGSHPQQ [L13N], AGQEGEDTLRRRELAPEAGSHPQQ [L13E] is lower in protein stability index: 5.55 for the first, 5.53 for the second.

Going from AGQEGEDTLRRRFLAPEAGSHPQQ [L13F] to AGQEGEDTLRRRGLAPEAGSHPQQ [L13G], the protein stability index rises from 3.32 to 5.55.

First: AGQEGEDTLRRRILAPEAGSHPQQ [L13I]
Second: AGQEGEDTLRRRMLAPEAGSHPQQ [L13M]
The protein stability index of the first is lower: 1.82 for the first, 2.22 for the second.

Compared with AGQEGEDTLRRRQLAPEAGSHPQQ [L13Q], AGQEGEDTLRRRRLAPEAGSHPQQ [L13R] is lower in protein stability index: 5.15 for the first, 5.04 for the second.

Going from AGQEGEDTLRRRSLAPEAGSHPQQ [L13S] to AGQEGEDTLRRRALAPEAGSHPQQ [L13A], the protein stability index falls from 5.22 to 3.81.

First: AGQEGEDTLRRRCLAPEAGSHPQQ [L13C]
Second: AGQEGEDTLRRRKLAPEAGSHPQQ [L13K]
The protein stability index of the first is lower: 3.48 for the first, 5.21 for the second.

Going from AGQEGEDTLRRRLLAPEALSHPQQ [G19L] to AGQEGEDTLRRRLLAPEAVSHPQQ [G19V], the protein stability index rises from 1.72 to 2.37.

First: AGQEGEDTLRRRLLAPEAISHPQQ [G19I]
Second: AGQEGEDTLRRRLLAPEAKSHPQQ [G19K]
The protein stability index of the first is higher: 2.54 for the first, 1.86 for the second.

First: AGQEGEDTLRRRLLAPEAASHPQQ [G19A]
Second: AGQEGEDTLRRRLLAPEAYSHPQQ [G19Y]
The protein stability index of the first is higher: 2.23 for the first, 1.75 for the second.

First: AGQEGEDTLRRRLLAPEATSHPQQ [G19T]
Second: AGQEGEDTLRRRLLAPEAQSHPQQ [G19Q]
The protein stability index of the first is higher: 2.58 for the first, 2.13 for the second.

First: AGQEGEDTLRRRLLAPEAHSHPQQ [G19H]
Second: AGQEGEDTLRRRLLAPEAPSHPQQ [G19P]
The protein stability index of the first is lower: 2.22 for the first, 2.69 for the second.

First: AGQEGEDTLRRRLLAPEADSHPQQ [G19D]
Second: AGQEGEDTLRRRLLAPEAMSHPQQ [G19M]
The protein stability index of the first is lower: 2.83 for the first, 3 for the second.

Going from AGQEGEDTLRRRLLAPEAFSHPQQ [G19F] to AGQEGEDTLRRRLLAPEAESHPQQ [G19E], the protein stability index rises from 1.86 to 2.15.

Compared with AGQEGEDTLRRRLLAPEACSHPQQ [G19C], AGQEGEDTLRRRLLAPEARSHPQQ [G19R] is higher in protein stability index: 2.15 for the first, 2.49 for the second.

First: AGQEGEDTLRRRLLAPEANSHPQQ [G19N]
Second: AGQEGEDTLRRRLLAPEAWSHPQQ [G19W]
The protein stability index of the first is higher: 2.27 for the first, 1.31 for the second.

First: AGQEGEDTLRRRLLAPFAGSHPQQ [E17F]
Second: AGQEGEDTLRRRLLAPRAGSHPQQ [E17R]
The protein stability index of the first is lower: 3.31 for the first, 4.68 for the second.

First: AGQEGEDTLRRRLLAPNAGSHPQQ [E17N]
Second: AGQEGEDTLRRRLLAPGAGSHPQQ [E17G]
The protein stability index of the first is lower: 3.16 for the first, 3.5 for the second.

Compared with AGQEGEDTLRRRLLAPCAGSHPQQ [E17C], AGQEGEDTLRRRLLAPKAGSHPQQ [E17K] is higher in protein stability index: 3.65 for the first, 3.86 for the second.

Going from AGQEGEDTLRRRLLAPDAGSHPQQ [E17D] to AGQEGEDTLRRRLLAPIAGSHPQQ [E17I], the protein stability index rises from 2.2 to 4.11.

First: AGQEGEDTLRRRLLAPLAGSHPQQ [E17L]
Second: AGQEGEDTLRRRLLAPMAGSHPQQ [E17M]
The protein stability index of the first is lower: 2.13 for the first, 2.79 for the second.

Compared with AGQEGEDTLRRRLLAPPAGSHPQQ [E17P], AGQEGEDTLRRRLLAPHAGSHPQQ [E17H] is lower in protein stability index: 5.13 for the first, 3.34 for the second.

Compared with AGQEGEDTLRRRLLAPQAGSHPQQ [E17Q], AGQEGEDTLRRRLLAPTAGSHPQQ [E17T] is higher in protein stability index: 2.63 for the first, 4.53 for the second.

Going from AGQEGEDTLRRRLLAPYAGSHPQQ [E17Y] to AGQEGEDTLRRRLLAPSAGSHPQQ [E17S], the protein stability index rises from 2.44 to 4.34.

First: AGQEGEDTLRRRLLAPVAGSHPQQ [E17V]
Second: AGQEGEDTLRRRLLAPAAGSHPQQ [E17A]
The protein stability index of the first is higher: 4.57 for the first, 4.22 for the second.
